Test results reported in US20190284258A1, “HAEMADIPSA SYLVESTRIS ANTITHROMBOTIC PEPTIDE SYLVESTIN AND USE THEREOF” (priority 2016, published 2019).

Molecular target: kallikrein
Assay: enzyme inhibition kinetics, chromogenic substrate, OD 405 nm

Binder: TSEPVCACPKMLFWVCGKDGETYTHPCIAKCHNVEVEHDGKCK (modifications not checked) [Haemadipsa sylvestris antithrombotic peptide Sylvestin]
- Ki: 17.8 nM
